Here are results for 2 proteins from PMC10245805 (bioRxiv, 2024).

This series concerns the molecule itself. Nature of the series: cryo-EM structure.

B1: wild-type (WT) human asparagine synthetase (ASNS) (enzyme, UniProt P08243 1-561, looked up)
chain: MCGIWALFGSDDCLSVQCLSAMKIAHRGPDAFRFENVNGYTNCCFGFHRLAVVDPLFGMQPIRVKKYPYLWLCYNGEIYNHKKMQQHFEFEYQTKVDGEIILHLYDKGGIEQTICMLDGVFAFVLLDTANKKVFLGRDTYGVRPLFKAMTEDGFLAVCSEAKGLVTLKHSATPFLKVEPFLPGHYEVLDLKPNGKVASVEMVKYHHCRDVPLHALYDNVEKLFPGFEIETVKNNLRILFNNAVKKRLMTDRRIGCLLSGGLDSSLVAATLLKQLKEAQVQYPLQTFAIGMEDSPDLLAARKVADHIGSEHYEVLFNSEEGIQALDEVIFSLETYDITTVRASVGMYLISKYIRKNTDSVVIFSGEGSDELTQGYIYFHKAPSPEKAEEESERLLRELYLFDVLRADRTTAAHGLELRVPFLDHRFSSYYLSLPPEMRIPKNGIEKHLLRETFEDSNLIPKEILWRPKEAFSDGITSVKNSWFKILQEYVEHQVDDAMMANAAQKFPFNTPKTKEGYYYRQVFERHYPGRADWLSHYWMPKWINATDPSARTLTHYKSAVKA
With B1, the “stoichiometry N” value was determined as 2.

B2: R142I variant of human asparagine synthetase (ASNS) (enzyme, UniProt P08243 1-561, looked up)
chain: MCGIWALFGSDDCLSVQCLSAMKIAHRGPDAFRFENVNGYTNCCFGFHRLAVVDPLFGMQPIRVKKYPYLWLCYNGEIYNHKKMQQHFEFEYQTKVDGEIILHLYDKGGIEQTICMLDGVFAFVLLDTANKKVFLGRDTYGVIPLFKAMTEDGFLAVCSEAKGLVTLKHSATPFLKVEPFLPGHYEVLDLKPNGKVASVEMVKYHHCRDVPLHALYDNVEKLFPGFEIETVKNNLRILFNNAVKKRLMTDRRIGCLLSGGLDSSLVAATLLKQLKEAQVQYPLQTFAIGMEDSPDLLAARKVADHIGSEHYEVLFNSEEGIQALDEVIFSLETYDITTVRASVGMYLISKYIRKNTDSVVIFSGEGSDELTQGYIYFHKAPSPEKAEEESERLLRELYLFDVLRADRTTAAHGLELRVPFLDHRFSSYYLSLPPEMRIPKNGIEKHLLRETFEDSNLIPKEILWRPKEAFSDGITSVKNSWFKILQEYVEHQVDDAMMANAAQKFPFNTPKTKEGYYYRQVFERHYPGRADWLSHYWMPKWINATDPSARTLTHYKSAVKA
As to B2, the “stoichiometry N” value was determined as 2.

One may read the stoichiometry N as a count of units in the complex or per binding partner.
